# Assay results taken from patent US20250145711A1 (Janssen / Centocor, published 2025).
# What was measured:
# [1] = target: T1, TRCW5 antigen (CD3δε-Fc-Avi) (biotinylated (site not stated)); test: ELISA
# T1 construct: also called recombinant CD3
# [2] = target: T1, TRCW5 antigen (CD3δε-Fc-Avi); test: ELISA after heat
# [3] = target: T2, CD3 on primary human pan T cells (human, UniProt P07766 23-207); test: flow cytometry, pan T-cells
# T2 construct: on cells it stands in the TCR/CD3 complex; also called Pan T-cells (CD3-positive); endogenous CD3
# T2 sequence (P07766 23-207 limits assumed): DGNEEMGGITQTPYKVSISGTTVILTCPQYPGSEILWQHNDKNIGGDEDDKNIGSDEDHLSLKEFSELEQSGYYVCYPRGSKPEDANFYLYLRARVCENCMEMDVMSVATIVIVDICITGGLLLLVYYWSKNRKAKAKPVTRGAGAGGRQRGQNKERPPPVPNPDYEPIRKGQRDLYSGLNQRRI
# Protocol: ELISA assays for binding to recombinant CD3 (TRCW5, SEQ ID NO: 39) were performed as above. Cell binding was performed using primary human T cell and Jurkat cells by flow cytometry. Briefly, E. coli expressed anti CD3 ScFv supernatants, either at room temperature, or 55° C., 60° C. or 65° C. heat treated samples.
# Pan T-cells (CD3-positive) and Jurkat-CD3-negative cells were prepared by staining Jurkat-CD3-negative cells with CFSE while keeping pan T-cells unstained. Jurkat-CD3-negative cell suspensions were resuspended at 20 million cells per each 50 mL conical tube. Cells were harvested by centrifugation at 400×g for 5 minutes and resuspended in DPBS followed by washing 2× in DPBS. Cells were stained with 1:25,000 dilution for a final dye concentration of 0.02 uM CFSE (2 uL of staining solution to 50 mL of cell suspension). Cells were incubated for 10 minutes at room temperature and centrifuged for 5 minutes at 400×g. After removal of supernatant, 3 mL of HI-FBS were added to the cell pellet, mixed and centrifuged for 5 min at 400×g. Supernatant was removed and cells were resuspended in BD stain buffer at 2×10\hat{ }6 cells/mL and incubated on ice or 4 C protected from light. Human pan T cells were thawed at 37 C and transferred gently into a conical tube containing 15 mL of warm or RT culture media (RPMI+10% FBS). […] Cells were harvested by centrifugation at 400×g for 5 min and resuspended in culture media (RPMI+10% HI-FBS). Pan T-cells (without staining) were prepared at 2×10\hat{ }6 cells/mL in flow staining buffer. Equal volumes of CFSE stained Jurkat-CD3-negative cells and unstained T-cells (CD3-positive) cells were mixed and plated 50 uL/well into assay plates. 50 uL/well neat bacterial supernatant samples and control sample (CD3W36 ScFv) were added to each well and plates were incubated 1 hr at 4 C or. Cells were harvested by centrifugation at 400×g for 4 min and 150 uL staining buffer were added to all wells, followed by centrifugation at 400×g for 4 min to pellet cells. To each well, 150 uL staining buffer were added followed by centrifugation at 400×g for 4 minutes to pellet cells.
# T1 sequence (chain, as listed by the source mutant limits assumed): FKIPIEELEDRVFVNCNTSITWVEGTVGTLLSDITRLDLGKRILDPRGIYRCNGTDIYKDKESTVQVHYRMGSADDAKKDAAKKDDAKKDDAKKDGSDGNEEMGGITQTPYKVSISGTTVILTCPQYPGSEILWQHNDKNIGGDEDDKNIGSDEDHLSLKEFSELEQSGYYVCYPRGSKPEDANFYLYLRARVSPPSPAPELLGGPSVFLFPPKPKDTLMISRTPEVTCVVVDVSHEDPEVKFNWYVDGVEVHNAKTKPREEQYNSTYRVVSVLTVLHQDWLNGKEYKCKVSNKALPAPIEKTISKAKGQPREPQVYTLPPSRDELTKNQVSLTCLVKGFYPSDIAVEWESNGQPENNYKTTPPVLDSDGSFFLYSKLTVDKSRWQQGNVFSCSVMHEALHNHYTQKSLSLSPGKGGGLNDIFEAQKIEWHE
EC50 [1],% Retained 55° C. [2],% Retained 60° C. [2],% Retained 65° C. [2],"% Binding retained on T-cells, 55° C. [3]","% Binding retained on T-cells, 60° C. [3]","% Binding retained on T-cells, 65° C. [3]","% Binding retained on T-cells, RT [3]",Binder
~13.3 nM,,,,,,,,CD3B2030 N106I (scFv) scFv: QVQLVQSGAEVKKPGSSVKVSCKASGYTFTRSTMHWVKQAPGQGLEWIGYINPSSAYTNYNQKFQGRVTLTADKSTSTAYMELSSLRSEDTAVYYCASPQVHYDYIGFPYWGQGTLVTVSSGGSEGKSSGSGSESKSTGGSEIVLTQSPATLSASPGERVTLSCSASSSVSYMNWYQQKPGQAPRRWIYDSSKLASGVPARFSGSGSGRDYTLTISSLEPEDFAVYYCQQWSRNPPTFGGGTKVEIK
,112%,117%,18%,1.01 fraction,0.411 fraction,0.385 fraction,1 fraction,CD3B2085 (scFv) scFv: QVQLVQSGAEVKKPGSSVKVSCKASGYTFTRSTMHWVRQAPGQGLEWMGYINPSSAYTNYAQKFQGRVTLTADKSTSTAYMELSSLRSEDTAVYYCASPQVHYDYNGFPYWGQGTLVTVSSGGSEGKSSGSGSESKSTGGSEIVLTQSPATLSASPGERVTLSCSASSSVSYMNWYQQKPGTAPRRWIYDSSKLASGVPARFSGSGSGRDYTLTISSLEPEDFAVYYCQQWSRNPPTFGGGTKVEIK
,104%,94%,5%,1.02 fraction,0.964 fraction,0.105 fraction,1 fraction,CD3B2087 (scFv) scFv: QVQLVQSGAEVKKPGSSVKVSCKASGYTFTRSTMHWVRQAPGQGLEWMGYINPSSAYTNYAQKFQGRVTLTADKSTSTAYMELSSLRSEDTAVYYCASPQVHYDYNGFPYWGQGTLVTVSSGGSEGKSSGSGSESKSTGGSEIVLTQSPATLSASPGERVTLSCSASSSVSYMNWYQQKPGTAPRRLIYDSSKLASGVPARFSGSGSGRDYTLTISSLEPEDFAVYYCQQWSRNPPTFGGGTKVEIK
,109%,108%,17%,1.07 fraction,1.13 fraction,0.0573 fraction,1 fraction,CD3B2080 (scFv) scFv: QVQLVQSGAEVKKPGSSVKVSCKASGYTFTRSTMHWVRQAPGQGLEWIGYINPSSAYTNYAQKFQGRVTLTADKSTSTAYMELSSLRSEDTAVYYCASPQVHYDYNGFPYWGQGTLVTVSSGGSEGKSSGSGSESKSTGGSEIVLTQSPATLSASPGERVTLSCSASSSVSYMNWYQQKPGQSPRRWIYDSSKLASGVPARFSGSGSGRDYTLTISSLEPEDFAVYYCQQWSRNPPTFGGGTKVEIK
,116%,114%,26%,1.01 fraction,0.461 fraction,0.258 fraction,1 fraction,CD3B2088 (scFv) scFv: QVQLVQSGAEVKKPGSSVKVSCKASGYTFTRSTMHWVRQAPGQGLEWMGYINPSSAYTNYAQKFQGRVTLTADKSTSTAYMELSSLRSEDTAVYYCASPQVHYDYNGFPYWGQGTLVTVSSGGSEGKSSGSGSESKSTGGSEIVLTQSPATLSASPGERVTLSCSASSSVSYMNWYQQKPGQSPRRWIYDSSKLASGVPARFSGSGSGRDYTLTISSLEPEDFAVYYCQQWSRNPPTFGGGTKVEIK
~429 nM,,,,,,,,CD3B2089 N106G (scFv) scFv: QVQLVQSGAEVKKPGSSVKVSCKASGYTFTRSTMHWVRQAPGQGLEWMGYINPSSAYTNYAQKFQGRVTLTADKSTSTAYMELSSLRSEDTAVYYCASPQVHYDYGGFPYWGQGTLVTVSSGGSEGKSSGSGSESKSTGGSEIVLTQSPATLSASPGERVTLSCSASSSVSYMNWYQQKPGQAPRRWIYDSSKLASGVPARFSGSGSGRDYTLTISSLEPEDFAVYYCQQWSRNPPTFGGGTKVEIK
~24 nM,,,,,,,,CD3B2030 N106P (scFv) scFv: QVQLVQSGAEVKKPGSSVKVSCKASGYTFTRSTMHWVKQAPGQGLEWIGYINPSSAYTNYNQKFQGRVTLTADKSTSTAYMELSSLRSEDTAVYYCASPQVHYDYPGFPYWGQGTLVTVSSGGSEGKSSGSGSESKSTGGSEIVLTQSPATLSASPGERVTLSCSASSSVSYMNWYQQKPGQAPRRWIYDSSKLASGVPARFSGSGSGRDYTLTISSLEPEDFAVYYCQQWSRNPPTFGGGTKVEIK
,104%,96%,5%,1.01 fraction,1.12 fraction,0.0404 fraction,1 fraction,CD3B2086 (scFv) scFv: QVQLVQSGAEVKKPGSSVKVSCKASGYTFTRSTMHWVRQAPGQGLEWMGYINPSSAYTNYAQKFQGRVTLTADKSTSTAYMELSSLRSEDTAVYYCASPQVHYDYNGFPYWGQGTLVTVSSGGSEGKSSGSGSESKSTGGSEIVLTQSPATLSASPGERVTLSCSASSSVSYMNWYQQKPGTSPRRLIYDSSKLASGVPARFSGSGSGRDYTLTISSLEPEDFAVYYCQQWSRNPPTFGGGTKVEIK
14.4 nM,,,,,,,,CD3B2089 G107F (scFv) scFv: QVQLVQSGAEVKKPGSSVKVSCKASGYTFTRSTMHWVRQAPGQGLEWMGYINPSSAYTNYAQKFQGRVTLTADKSTSTAYMELSSLRSEDTAVYYCASPQVHYDYNFFPYWGQGTLVTVSSGGSEGKSSGSGSESKSTGGSEIVLTQSPATLSASPGERVTLSCSASSSVSYMNWYQQKPGQAPRRWIYDSSKLASGVPARFSGSGSGRDYTLTISSLEPEDFAVYYCQQWSRNPPTFGGGTKVEIK
21.4 nM,,,,,,,,CD3B2089 G107Y (scFv) scFv: QVQLVQSGAEVKKPGSSVKVSCKASGYTFTRSTMHWVRQAPGQGLEWMGYINPSSAYTNYAQKFQGRVTLTADKSTSTAYMELSSLRSEDTAVYYCASPQVHYDYNYFPYWGQGTLVTVSSGGSEGKSSGSGSESKSTGGSEIVLTQSPATLSASPGERVTLSCSASSSVSYMNWYQQKPGQAPRRWIYDSSKLASGVPARFSGSGSGRDYTLTISSLEPEDFAVYYCQQWSRNPPTFGGGTKVEIK
,112%,114%,38%,1.04 fraction,1.2 fraction,0.102 fraction,1 fraction,CD3B2081 (scFv) scFv: QVQLVQSGAEVKKPGSSVKVSCKASGYTFTRSTMHWVRQAPGQGLEWIGYINPSSAYTNYAQKFQGRVTLTADKSTSTAYMELSSLRSEDTAVYYCASPQVHYDYNGFPYWGQGTLVTVSSGGSEGKSSGSGSESKSTGGSEIVLTQSPATLSASPGERVTLSCSASSSVSYMNWYQQKPGQAPRRWIYDSSKLASGVPARFSGSGSGRDYTLTISSLEPEDFAVYYCQQWSRNPPTFGGGTKVEIK
17.4 nM,,,,,,,,CD3B2089 G107V (scFv) scFv: QVQLVQSGAEVKKPGSSVKVSCKASGYTFTRSTMHWVRQAPGQGLEWMGYINPSSAYTNYAQKFQGRVTLTADKSTSTAYMELSSLRSEDTAVYYCASPQVHYDYNVFPYWGQGTLVTVSSGGSEGKSSGSGSESKSTGGSEIVLTQSPATLSASPGERVTLSCSASSSVSYMNWYQQKPGQAPRRWIYDSSKLASGVPARFSGSGSGRDYTLTISSLEPEDFAVYYCQQWSRNPPTFGGGTKVEIK
,114%,116%,9%,1.11 fraction,0.682 fraction,0.276 fraction,1 fraction,CD3B2082 (scFv) scFv: QVQLVQSGAEVKKPGSSVKVSCKASGYTFTRSTMHWVRQAPGQGLEWMGYINPSSAYTNYAQKFQGRVTLTADKSTSTAYMELSSLRSEDTAVYYCASPQVHYDYNGFPYWGQGTLVTVSSGGSEGKSSGSGSESKSTGGSEIVLTQSPATLSASPGERVTLSCSASSSVSYMNWYQQKPGTSPRRWIYDSSKLASGVPARFSGSGSGRDYTLTISSLEPEDFAVYYCQQWSRNPPTFGGGTKVEIK
30.8 nM,,,,,,,,CD3B2089 N106L (scFv) scFv: QVQLVQSGAEVKKPGSSVKVSCKASGYTFTRSTMHWVRQAPGQGLEWMGYINPSSAYTNYAQKFQGRVTLTADKSTSTAYMELSSLRSEDTAVYYCASPQVHYDYLGFPYWGQGTLVTVSSGGSEGKSSGSGSESKSTGGSEIVLTQSPATLSASPGERVTLSCSASSSVSYMNWYQQKPGQAPRRWIYDSSKLASGVPARFSGSGSGRDYTLTISSLEPEDFAVYYCQQWSRNPPTFGGGTKVEIK
